Test results: patent publication US10876098B2, “Polynucleotide, host cell and a method to recombinantly produce the protein encoded by said polynucleotide having peroxygenative activity” (CONSEJO SUPERIOR DE INVESTIGACIONES CIENTIFICAS (CSIC), priority 2015, dated 2020)

T1: Agrocybe aegerita peroxygenase AaeUPO1 variant SoLo (JaWa + F191S: V57A, L67F, V75I, F191S, G241D, I248V, R257K, F311L), SEQ ID NO: 42 (Cyclocybe aegerita, UniProt B9W4V6, F234S/F354L/G284D/I291V/L110F/R300K/V100A/V118I)
T1 sequence (B9W4V6 44-371 V100A/L110F/V118I/F234S/G284D/I291V/R300K/F354L): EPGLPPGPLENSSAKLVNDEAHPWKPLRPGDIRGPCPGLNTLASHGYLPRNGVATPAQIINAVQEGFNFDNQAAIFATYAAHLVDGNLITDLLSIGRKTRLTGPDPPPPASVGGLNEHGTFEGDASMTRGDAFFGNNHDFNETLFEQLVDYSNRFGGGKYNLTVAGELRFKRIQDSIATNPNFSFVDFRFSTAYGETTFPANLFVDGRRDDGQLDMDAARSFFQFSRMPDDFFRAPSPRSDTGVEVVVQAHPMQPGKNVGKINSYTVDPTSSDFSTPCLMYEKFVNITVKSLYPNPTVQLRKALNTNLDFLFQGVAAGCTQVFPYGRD

B1: SoLo: JaWa variant with added mutation F191S, SEQ ID NO: 42 (protein)
chain: MKYFPLFPTLVYAVGVVAFPDYASLAGLSQQELDAIIPTLEAREPGLPPGPLENSSAKLVNDEAHPWKPLRPGDIRGPCPGLNTLASHGYLPRNGVATPAQIINAVQEGFNFDNQAAIFATYAAHLVDGNLITDLLSIGRKTRLTGPDPPPPASVGGLNEHGTFEGDASMTRGDAFFGNNHDFNETLFEQLVDYSNRFGGGKYNLTVAGELRFKRIQDSIATNPNFSFVDFRFSTAYGETTFPANLFVDGRRDDGQLDMDAARSFFQFSRMPDDFFRAPSPRSDTGVEVVVQAHPMQPGKNVGKINSYTVDPTSSDFSTPCLMYEKFVNITVKSLYPNPTVQLRKALNTNLDFLFQGVAAGCTQVFPYGRD

Tests used:
[1] = target: T1, Agrocybe aegerita peroxygenase AaeUPO1 variant SoLo (JaWa + F191S: V57A, L67F, V75I, F191S, G241D, I248V, R257K, F311L), SEQ ID NO: 42; test: Kinetic constants, SoLo variant; conditions: SoLo vs parental JaWa, ABTS
Description: In order to calculate the values of Km and kcat, values of Vmax were represented at substrate concentrations and the hyperbole function was adjusted (using SigmaPlot 10.0, wherein the parameter a is equal to kcat and the parameter b, to Km).

[2] = Thermostability assay (T50), culture supernatants, residual activity with ABTS; type: physicochemical; conditions: versus PaDa-I variant
Description: An individual S. cerevisiae colony was selected with the corresponding clone (grown in a SC drop-out minimal medium plate: 100 mL of 6.7% yeast nitrogen base, 100 mL of 19.2 g/L uracil-free amino acid supplement, 100 mL of 20% glucose, 1 mL of 25 g/L chloramphenicol and ddH2O up to 1,000 mL) was inoculated in 2 mL of selective minimal medium (as in the SC plate medium, but with 20 g of bacto agar and rafinose instead of galactose) and was incubated for 48 hour at 30° C. and 220 RPM. An aliquot of this culture was taken such that, upon inoculating it in 5 mL of new minimal medium, optical density at 600 nm would have a value of 0.25 (optical density, OD600=0.25). This starter was incubated until completing two full growth cycles (between 6 and 8 hours), at which time 1 mL of cells were taken to inoculate 9 mL of expression medium in a 100 mL flask (OD600=0.1). This culture of each clone was incubated for 72 hours at 25° C. and 220 RPM (at peak UPO activity; OD600=25-30), the cells were separated by centrifugation (10 minutes at 4,500 RPM and 4° C.) and supernatant was filtered (using a glass and nitrocellulose filter with a pore size of 0.45 μm). Appropriate dilutions of the supernatants were prepared so that aliquots of 20 μL would give rise to a linear response in kinetic mode. 50 μL of supernatant were used for each point in a temperature gradient created by means of thermocyclator, from 30 to 80° C. After incubating for 10 minutes, the aliquots were cooled in ice for 10 minute and tempered at room temperature for 5 minutes. […] The thermostability values were calculated in accordance with the ratio between the residual activities incubated at different temperatures and the value of initial activity at room temperature. The value of T50 was determined as the value of the temperature at which the protein loses 50% of it initial activity after incubating for 10 minutes.
An individual S. cerevisiae colony was selected with the corresponding clone (grown on a SC drop-out minimal medium plate: 100 mL of 6.7% yeast nitrogen base, 100 mL of 19.2 g/L uracil-free amino acid supplement, 100 mL of 20% glucose, 1 mL of 25 g/L chloramphenicol and ddH2O up to 1,000 mL), was inoculated in 3 mL of selective minimal medium (like the SC plate medium, but with 20 g of bacto agar and rafinose instead of galactose) and incubated for 48 hours at 30° C. and 220 RPM. […] The thermostability values were calculated in accordance with the ratio between the residual activities incubated at different temperatures and the value of initial activity at room temperature. The value of T50 was determined as as the temperature value at which the protein loses 50% of its initial activity after incubating for […].

[3] = 4-AAP assay with propranolol in the presence of ascorbic acid (peroxygenase activity); type: biochemical; conditions: propranolol, in the presence of ascorbic acid
Description: (§1) FIG. 9 Assay of 4-AAP (4-aminoantipyrine) with different pure UPO variants (AaeUPO1, PaDa-1 and JaWa). […] Each reaction was performed in triplicate.
(§2) The mother plates were centrifuged (Eppendorf 5810R centrifuge, Germany) for 10 minutes at 3,500 RPM and 4° C. 20 μL of supernatant of these mother plates were transferred to two replica daughter plates with the help of a Freedom EVO liquid-handling robot (Tecan, Switzerland).
(§3) Without ascorbic, the plates were incubated for 30 minutes and with ascorbic for 60 minutes. […] The plates were briefly agitated and absorbance measured at 530 nm, using a plate reader for such purpose ([…]ax Plus 384, Molecular Devices, USA). The values were normalised against the parental of each plate. To rule out false positives, re-screenings were carried out, in addition to a third re-screening wherein kinetic stability was determined (T50) (P. Molina-Espeja, et al. Appl. Environ. Microbiol. 2014. 80, 3496-3507).

[4] = 4-AAP assay with propranolol in the absence of ascorbic acid (peroxidase activity on the product); type: biochemical
Description: as §1, §2, §3

[5] = Propranolol transformation reaction analysed by HPLC-PDA; type: biochemical; conditions: absence of ascorbic acid
Description: FIG. 13 Chromatogram showing the enzyme reactions.
(§4) The reactions were analysed by means of chromatography in reverse phase (HPLC). The equipment was composed of a tertiary pump (Varian-Agilent Technologies, USA) coupled to an autosampler (Merck Millipore, MA, USA); for the separation, a Zorbax Eclipse plus C18 column (15 cm×4.6 cm) at 40° C. was used and the detection was performed using a photodiode detector (PDA) (Varian, Agilent Technologies, USA). The mobile phase selected was a gradient from 10% methanol and 90% ddH2O (in both cases with 0.1% of acetic acid) up to 90% methanol and 10% ddH2O at a flow rate of 0.8 mL/min. The reaction was quantified at 280 nm (based on HPLC standards). […] The standard deviations were less than 5% in all cases.

[6] = Turnover with 5′-hydroxypropranolol as substrate, HPLC; type: biochemical; conditions: 0.03 μM enzyme, 0.4 mM 5′-hydroxypropranolol, 2 mM H2O2, absence of ascorbic acid
Description: FIG. 14 Turnover rates of AaeUPO, JaWa and SoLo. […] The disappearance of the product 5′-hydroxypropranolol can be observed due to the formation of its corresponding quinone by means of the peroxidase activity of the enzyme.
as §4

[7] = Total turnover number (TTN) for synthesis of 5′-hydroxypropranolol from propranolol; type: biochemical
Description: FIG. 15 Calculation of the total turnover number (TTN) of AaeUPO and SoLo.
as §4

Molecule	affinity to the substrate with respect to its parental [1]	increase in thermostability (T50) with respect to PaDa-I [2] [°C]	peroxygenase activity on microplate higher than its parental (JaWa) [3] [%]	decrease in peroxidase activity relative to parental (JaWa) [4]	regioselectivity against 5′-hydroxypropranolol ([5]; 0.03 μM enzyme, 4 mM propranolol, 2 mM H2O2) [%]	amount of 5′-hydroxypropranolol produced ([5]; compared among AaeUPO, PaDa-I, JaWa, SoLo)	5′-hydroxypropranolol maintained without oxidising [6]	TTNs, With ascorbic acid ([7]; 0.03 μM enzyme, propranolol, 2 mM H2O2 added every 10 minutes, 4 mM ascorbic acid)	TTNs, Without ascorbic acid ([7]; 0.03 μM enzyme, propranolol, 2 mM H2O2 added every 10 minutes, absence of ascorbic acid)	increase in TTN for synthesis of 5′-hydroxypropranolol versus wild AaeUPO ([7]; absence of antioxidants) [fold]
CCn1c(=NN=c2sc3cc(S(=O)(=O)O)ccc3n2CC)sc2cc(S(=O)(=O)O)ccc21 [ABTS, 2,2′-azino-bis(3-ethylbenzothiazolin-6-sulfonic acid)]	three fold worse	–	–	–	–	–	–	–	–	–
B1	–	2	30	more than two fold	99	produce the largest amount of 5′-hydroxypropranolol	approximately 50%	62,000	45,000	15
